Measured values taken from paper PMC11602438.

What was measured:
[1] = target: T1, YggS (E. coli PLP-BP), wild type (Escherichia coli) (UniProt P67080); assay: EMSA; conditions: REMSA with fixed RNA: 10 mM HEPES pH 7.3, 10 mM KCl, 1 mM MgCl2, 1 mM DTT, 5% glycerol, RT 30 min; 5% native PAGE, 0.5x TBE (fixed-protein REMSA: 20 mM HEPES …)
T1 sequence: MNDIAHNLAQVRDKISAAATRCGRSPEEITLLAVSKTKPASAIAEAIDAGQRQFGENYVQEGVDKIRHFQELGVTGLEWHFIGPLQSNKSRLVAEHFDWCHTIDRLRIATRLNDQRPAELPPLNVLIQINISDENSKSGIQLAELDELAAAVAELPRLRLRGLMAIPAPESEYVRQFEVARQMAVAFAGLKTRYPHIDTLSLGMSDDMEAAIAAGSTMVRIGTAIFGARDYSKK

[2] = system: YggS (E. coli PLP-BP), wild type (Escherichia coli); assay: EMSA; conditions: apo-form (no PLP); REMSA with fixed RNA: 10 mM HEPES pH 7.3, 10 mM KCl, 1 mM MgCl2, 1 mM DTT, 5% glycerol, RT 30 min; 5% native PAGE, 0.5x TBE (fixed-protein REMSA: 20 mM HEPES …)

## GGGUCGCGUGGAAGCCCUGCCUGGGGUUGAAGCGUUAAAACUUAAUCAGGCUAGUUUGUUAGUGGCGUGUCCGUCCGCAGCUGGCAAGCGAAUGUAAAGACUGACUAAGCAUGUAGUACCGAGG [SsrA RNA fragment (198-318)]
[1]
  Kd: 2.8 µM

## GGGUGGUAACAGUCCGUGGCACGGUAAACUCCACCCGGAGCAAGGCCAAAUAGGGGUUCAUAAGGUACGGCCCGUACUGAACCCGGGUAGGCUGCUUGAGCCAGUGAGCGAUUGCUGGCCUAGAUGAAUGACUGUCCACGACAGAACCCGG [RnpB RNA fragment (210-357)]
[1]
  Kd: 3.4 µM

## RnpB RNA fragment (210-357)
[2]
  Kd: 3.4 µM

## SsrA RNA fragment (198-318)
[2]
  Kd: 2.8 µM
